In the assay the target is glutathione S-transferase Pi 1 (GSTP1) (human (endogenous in 97H and Huh7)), P09211. The assay can be described thus: native gel or EMSA; total protein of 97H-PCSK9 and 97H-mock cells in nondenaturing, nonreducing buffer without boiling, PAGE gel without SDS; Western blot with anti-GSTP1. To be noted: remark: other sources report otherwise.

The term stoichiometry N denotes a count of units in the complex or per binding partner.

B1: glutathione S-transferase Pi 1 (GSTP1), P09211 1-210 (natural protein)
chain: MPPYTVVYFPVRGRCAALRMLLADQGQSWKEEVVTVETWQEGSLKASCLYGQLPKFQDGDLTLYQSNTILRHLGRTLGLYGKDQQEAALVDMVNDGVEDLRCKYISLIYTNYEAGKDDYVKALPGQLKPFETLLSQNQGGKTFIVGDQISFADYNLLDLLLIHEVLAPGCLDAFPLLSAYVGRLSARPKLKAFLASPEYVNLPINGNGKQ
Regarding B1, the stoichiometry N was 2.

The record behind these values is article PMC8763006.
